These results are taken from patent US20250179187A1, “ANTI PD-L2 ANTIBODY” (REJUVERON SENESCENCE THERAPEUTICS AG, priority 2022, published 2025).

One experiment has as its target T1, recombinant hPD-L2 (Homo sapiens, UniProt Q9BQ51).
T1 sequence (Q9BQ51 20-273): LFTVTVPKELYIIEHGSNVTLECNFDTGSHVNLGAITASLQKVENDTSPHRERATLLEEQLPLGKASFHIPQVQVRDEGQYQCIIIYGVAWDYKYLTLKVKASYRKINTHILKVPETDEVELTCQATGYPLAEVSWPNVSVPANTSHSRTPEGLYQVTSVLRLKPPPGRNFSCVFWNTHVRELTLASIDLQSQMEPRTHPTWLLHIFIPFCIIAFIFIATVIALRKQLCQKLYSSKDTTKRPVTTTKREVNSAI
Put plainly: ELISA with recombinant hPD-L2. The class given is binding. Conditions: compared to a panel of commercially available anti-PD-L2 antibodies.

In another experiment the target is T2, hPD-L2/hPD-1 interaction (Homo sapiens, UniProt Q9BQ51).
T2 construct: host or cells: CHO-K1 (hPD-L2) co-cultured with Jurkat PD-1 effector cells
T2 sequence (Q9BQ51 20-273): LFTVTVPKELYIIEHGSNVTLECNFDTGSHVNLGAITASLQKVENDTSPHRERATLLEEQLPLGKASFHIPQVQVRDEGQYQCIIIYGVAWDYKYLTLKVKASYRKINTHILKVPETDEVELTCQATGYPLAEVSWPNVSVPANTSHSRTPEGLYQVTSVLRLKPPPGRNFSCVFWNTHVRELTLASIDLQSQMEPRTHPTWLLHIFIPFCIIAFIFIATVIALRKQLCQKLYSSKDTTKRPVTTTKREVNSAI
The experiment in a line: Reporter assay, blocking of cellular hPD-L2/hPD-1 interaction (Jurkat hPD-1 / CHO-K1 hPD-L2 co-culture). The conditions noted are these: reporter in hPD-1 Jurkat cells co-cultured with hPD-L2 CHO-K1 cells; compared to MIH-18, 24F.10C12 and D7U86. The class given is cell-based. The procedure:
Cellular blocking activity of antibodies according to the present invention was assessed by with the Promega (Southampton, Hampshire, UK) PD-1/PD-L2 blockade bioassay (Promega, Cat No. CS187131-1), which is a bioluminescent cell-based assay that is used to measure the potency and stability of antibodies and other biologics designed to block the hPD-1/PD-L2 interaction. In brief, CHO-K1 cells overexpressing hPD-L2 were thawed and plated in a 96 well plate. The following day, appropriate concentrations of antibodies were added to the wells. Jurkat PD-1 effector cells, expressing a luminescent NFAT reporter for cell activation, were subsequently thawed and added to the wells immediately. The co-culture was incubated for 6 hours and read using the SpectraMax i3× reader (Molecular Devices, Wokingham, UK). GraphPad Prism 9.0 (GraphPad Software, La Jolla, Ca) was used for the data analysis and data was plotted using a four-parameter non-linear regression model.
In general terms: Reporter assays use an easily measured gene product as a stand-in for the process of interest.

In a further experiment the target is T3, recombinant mPD-L2 (Mus musculus, UniProt Q9WUL5).
T3 construct: purchased Sino Biological 50804-M08H-B
T3 sequence (Q9WUL5 20-247): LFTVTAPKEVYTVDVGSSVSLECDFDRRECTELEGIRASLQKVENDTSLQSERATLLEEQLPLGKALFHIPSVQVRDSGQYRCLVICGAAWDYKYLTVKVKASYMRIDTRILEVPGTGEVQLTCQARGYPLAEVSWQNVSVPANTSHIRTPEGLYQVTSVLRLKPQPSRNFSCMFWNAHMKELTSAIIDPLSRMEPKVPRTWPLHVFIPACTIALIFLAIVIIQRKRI
Put plainly: ELISA for mPDL2. In kind it is binding. The procedure:
ELISA plates were coated with recombinant mPDL2 (Sino Biological, cat 50804-M08H-B, lot LC10SE0706) at a concentration of 2 micrograms/milliliter at 4° C. for 15 h. Coating was then washed two times with PBS and blocked with 0.5% bovine serum albumin (BSA)/PBS at 37° C. for one hour. Blocking was removed and appropriate antibody concentrations diluted in 0.5% BSA/PBS for 1 hour at 37° C. Plates were then washed five time in PBS and a goat anti-mouse-HRP (Jackon Immuno Research cat #115-035-071) diluted in 0.5% BSA/PBS was added and incubated for 30 minutes at 37° C. Plates were washed again five times with PBS and TMB substrate (Medicago cat #10-9405) was added for 30 minutes at 37° C. in the dark. Reaction was stopped with 1N HCl and read and optical densities read on a standard spectrophotometer plate reader at […].
In general terms: An ELISA detects its analyte on a solid surface through an enzyme-linked reagent.

A further experiment concerns PyMT mammary tumor. The experiment in a line: Implantable mouse PyMT mammary tumor model. In kind it is in vivo. Conditions: in combination with doxorubicin, up to day 49, compared to TY-25 in combination with doxorubicin. The procedure:
1 million PyMT cells were injected in PBS into the right mammary fat pad number 4, with an N=10 animals per treatment group. When tumors reached an average of 100 millimeter cubed on day 17 post-injection, treatment regimens were initiated. All mice were sorted into study groups based on caliper estimation of tumor burden. The mice were distributed to ensure that the mean tumor burden for all groups was within 10% of the overall mean tumor burden for the study population. The first dose of doxorubicin was administered intraperitoneally at 4 mg/kg, as well as the antibodies, all at doses of 10 mg/kg intraperitoneally, on day 17 post-implantation. Doxorubicin (MWI Animal Health, BJ0080A/NA) was administered once more on day 24 and antibodies on days 20, 24, 27, 31, 34, 38, 41. The following commercial antibodies were used in the study: anti-mouse PD-L2 (clone TY-25, Bio X Cell lot/cat 0411901. Vehicle-treated animals received only vehicle solvent for doxorubicin as a no-treatment control. Tumor volume was measured at least 2-3 times per week throughout the study with a standard caliper.

In a further experiment the test system is PyMT spontaneous tumors. Put plainly: Spontaneous mouse PyMT breast tumor model with tumor immunostaining. The class given is in vivo. How it is done: Hemizygous transgenic PyMT mice were allowed to develop tumors to an average size of around 200 cubic millimeters, usually around 9 weeks, at which time treatment was initiated, with N=3-5 per treatment group. Doxorubicin (Aurovitas) was administered intraperitoneally once per week at 4 mg/kg and antibodies were administered every three days at a dose of 10 mg/kg during four weeks or 3 mg/kg where noted. Vehicle-treated animals received only vehicle solvent for doxorubicin as a no-treatment control. Tumors were measured with a standard caliper once per week. At the end of the study, tumors were resected and further analyzed by immunohistochemistry.
For the depleting study, the same treatment regimen described above was carried out but in combination with CD4 or CD8-depleting antibodies (BioXCell), administered on day −1, day 0 and weekly thereafter at a dose of 200 micrograms per animal.
For double SA-beta-galactosidase/PD-L2 staining, following resection, tumors were fixed in 2% paraformaldehyde and 0.2% glutaldehyde in PBS for 2 hours at room temperature. Samples were washed in PBS for 15 minutes then stained by standard procedures for SA-beta-galactosidase activity overnight. Following this, tumors were washed in PBS for 15 minutes, dehydrated in 70% ethanol and embedded in paraffin, sectioned, and stained for PDL2 with an anti-PDL2 antibody (Cell Signaling, D6L5A cat #49189) by standard immunohistochemistry techniques. To quantify the number of cells double positive for SA-beta-galactosidase and PDL2, 3 random fields from 2 mammary glands from each animal in each treatment group was analyzed with Image J software. Staining for CD3, CD4 and CD8 was also carried out by standard immunohistochemistry techniques on paraffin-embedded material and quantified according to pixel density using Image J software.

B1: VH0/VK0-mIgG1: parental murine anti-PD-L2 antibody on mIgG1 backbone; SEQ ID NO: 21/SEQ ID NO: 22 (antibody, V domains shown)
VH: QVQLQQSGAELVRPGTSVKVSCKASGYAFSNYFIEWVKQRPGQGLEWIGLNIPGSGGSNYAEKFKGKATLTADKSSSTAYMQLSSLTSEDSAVYFCARRRLPPDWYFDVWGTGTTVTVSS
VL: DVVMTQTPLSLPVSLGDQASISCRSSQSLVHSDGNTYLHWYLQKPGQSPKLLIYKVSNRFSGVPDRFSGSGSGTDFTLKISRVEAEDLGVYFCSQSTHVPWTFGGGTKLEIK
For the molecule B1, in the experiment with recombinant hPD-L2, the “binding activity against recombinant hPD-L2” value is reported as “superior binding activity”. Further, the “blocking activity against cellular hPD-L2/hPD-1 interaction” value in the experiment with hPD-L2/hPD-1 interaction is on record as “superior blocking activities”. Further, the “cross-reactivity to recombinant mPD-L2” value in the experiment with recombinant mPD-L2 is listed as “shows cross-reactivity”. Further, in the experiment on PyMT mammary tumor, the progression of tumors result is listed as “smaller progression of tumors”. The final tumor volume entry in the experiment with PyMT spontaneous tumors (3 mg/kg antibody with doxorubicin over four weeks, compared to doxorubicin alone or TY-25 and doxorubicin) is on record as “greater reduction in final tumor volume”. Besides, the tumor growth result with PyMT spontaneous tumors (combination with doxorubicin vs doxorubicin and mIgG1 control) is on record as “inhibited tumor growth more”. For the same molecule, in the experiment on PyMT spontaneous tumors (combination with doxorubicin, compared to vehicle or doxorubicin-only treated mice (p<0.05)), the “relative numbers of CD3+, CD8+ and CD4+ cells in PyMT spontaneous tumors” value is recorded as “increased relative numbers”. Besides, the “inhibition of tumor progression under depleting antibodies against CD4+ cells” value with PyMT spontaneous tumors (doxorubicin and antibody plus CD4-depleting antibodies) is recorded as “only slightly relieved this inhibition”. In the experiment on PyMT spontaneous tumors (doxorubicin and antibody plus CD8-depleting antibodies), the “inhibition of tumor progression under depleting antibodies against CD8+ cells” value is “relieve the inhibition”. The “cells double-positive for PD-L2 and SA-βGal in PyMT tumors” value in the experiment with PyMT spontaneous tumors (immunohistochemistry, antibody co-treated with doxorubicin vs Vehicle or Doxorubicin+mIgG1 (p<0.05)) is on record as “significantly lower”.
